For 1 molecule, LDL (%), LDL uptake by HepG2 cells; antibody 0.67 nM, LDL (%), LDL uptake by HepG2 cells; antibody 6.67 nM and LDL (%), LDL uptake by HepG2 cells; antibody 66.70 nM results are on record in patent US20180355059A1.

The target of the experiment is recombinant human PCSK9^D374Y protein (human), Q8NBP7. As to the kind of experiment: cell-based or functional assay.

B1: 103C11E8, chimeric anti-PCSK9 antibody from hybridoma (antibody, V domains shown)
VH: QVQLQESGPGLVKPSGTLSLTCAVSGGSISSSNWWSWVRQPPGKGLEWIGEIYHSGSTNYNPSLKSRVTISVDKSKNQFSLKLSSVTAADTAVYYCARGIAVAGTDVMDAWGQGASVTVSS
VL: EIVLTQSPATLSLSPGERATLSCRASQSVSSYLVWYQQKSGQAPRLLIYGTSNRATGIPARFSGSGSGTDFTLTISSLEPEDFALYYCQQRGNWMYTFGQGTKLEIK
modifications: here or on the partner: biotinylated in the ELISA assays
Turning to B1, the LDL (%), LDL uptake by HepG2 cells; antibody 0.67 nM was 20%; the LDL (%), LDL uptake by HepG2 cells; antibody 6.67 nM is 43.8%; the LDL (%), LDL uptake by HepG2 cells; antibody 66.70 nM was determined as 86.4%.
